Square brackets hold non-standard residues; d marks the D form. Ends that are not written are not given here. pY = N[C@@H](Cc1ccc(OP(=O)(O)O)cc1)C(=O)O
Experiments:
[1] = biological target: T1, SHP2 C-SH2 domain 102-220 (human, UniProt Q06124 102-220); assay: ITC
T1 sequence (looked up): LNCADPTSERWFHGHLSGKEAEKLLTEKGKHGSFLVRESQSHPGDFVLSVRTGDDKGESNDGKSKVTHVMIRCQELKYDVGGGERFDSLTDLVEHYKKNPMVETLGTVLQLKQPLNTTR

[2] = biological target: T2, SHP2 tandem domain N-SH2-C-SH2-SHP2 1-222 (human, UniProt Q06124 1-222); assay: ITC
T2 sequence (looked up): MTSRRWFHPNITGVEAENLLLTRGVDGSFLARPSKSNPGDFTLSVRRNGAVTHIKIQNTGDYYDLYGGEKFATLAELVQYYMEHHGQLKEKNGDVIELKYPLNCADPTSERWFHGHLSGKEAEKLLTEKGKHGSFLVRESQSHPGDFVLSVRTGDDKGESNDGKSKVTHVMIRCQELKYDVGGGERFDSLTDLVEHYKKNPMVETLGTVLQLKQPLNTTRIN

B1: pY659-Gab1 655-666 monophosphorylated peptide (C-terminally truncated) (peptide, UniProt Q13480 655-666, looked up)
peptide: ERVD[pY]VVVDQQK
[1]
  fold reduction of affinity against pY659-Gab1 655-677: 10 fold

B2: pY659-Gab1 655-677 monophosphorylated peptide (peptide, UniProt Q13480 655-677, looked up)
peptide: ERVD[pY]VVVDQQKTLALKSTREAW
[1]
  Kd: 4000 nM

B3: pY627pY659-Gab1 613-694 (bis-phosphorylated fragment of Grb2-associated binding protein 1) (peptide, UniProt Q13480 613-694, looked up)
chain: SSPMIKPKGDKQVEYLDLDLDSGKSTPPRKQKSSGSGSSVADERVDYVVVDQQKTLALKSTREAWTDGRQSTESETPAKSVK
modifications: phosphotyrosine at 627 and 659
[2]
  Kd: 37 ± 13 nM
